{
  "source": "paper PMC11818568",
  "about": "“Characterization of Tetrathionate Hydrolase from Acidothermophilic Sulfur-Oxidizing Archaeon Metallosphaera cuprina Ar-4” (International Journal of Molecular Sciences, 2025)",
  "proteins": {"B1": {"name": "TTHMc (tetrathionate hydrolase, Mcup_1281) (Metallosphaera cuprina Ar-4) (protein)", "chain": "PSITQIVSQVITPIPQPIVRTYDIYNTTYFPYEVKVTYYPGNATSQNLGLPGSWLVTNGGQSHNAVVDTTCTELIQGVSWQQDFAHMAGAALIPLSAPENMLPGSNVMGTRSALVMLTQMVGEPLGVSLADNLLFVEEDSGPGSIFAVNPLNGQVVWYATGLASYAMNNPIVYNGIVYVTVGDVGFNFANFVHYENGQYSAIHRGMAYGAIYAFNASDGILLWMRFTMGEAMPAPAVYDGILAYSDGGGEFVGVNATTGQTLWMDSIPGLFDSMSSVNYYVMPNGTPLFVAGFTSLTEPFGLLVAVNGITGKMVWNASLPSPNKPFNTGMGDVPPAVDQSLGIVVQSTVANAEPNGTVDTMVLAVNATNGHVLWVTNLGRGYTPPAFKGAVPMIYNNTVFVGAPSLGTEFALNISTGRIIWQTRLNGISLPPTAPGGPRGSATIYDNLLWIAGGPNVYVLNPHNGDLLQQYYVGGRFGIVNPVIAGNTMYLTNSYGWVIAIPLYQVFPLFQYYTNS", "notes": "native enzyme purified from tetrathionate-grown M. cuprina Ar-4 cells (soluble fraction; DEAE, HIC, size exclusion, Q-Sepharose); no tag; SDS band about 54 kDa; no homodimer observed"}},
  "substrate": "O=S(=O)(O)SSS(=O)(=O)O",
  "assay": "HPLC discontinuous assay, Michaelis-Menten",
  "format": "biochemical, Metallosphaera cuprina",
  "details": "pH 6.0, 95 °C, 1.15 µg enzyme, K2S4O6 varied",
  "data": [
    {"protein": "B1", "values": [
      {"measurement": "Km", "value": 350, "unit": "µM"}
    ]}
  ]
}
